Measurements as given in PMC3078936 (PLoS ONE, 2011).

Target: T1, DYNLL1 (Homo sapiens, UniProt P63167)
T1 construct: 6xHis (N); made in house; host or cells: E. coli BL21(DE3)Star
Experiment: Isothermal titration calorimetry of peptide/protein binding to DYNLL1
Conditions: ITC binding enthalpy, PBS + 3 mM 2-mercaptoethanol pH 7.4, 299 K
Description: Binding parameters of the in vitro evolved Ac-[…] and naturally evolved Ac-DKSTQTD consensus peptides were determined by isothermal titration calorimetry (ITC). Synthetic peptides were used and N-terminal acetylation was applied to better mimic a non-terminal peptide motif by avoiding the positively charged N-terminus. In order to elucidate the particular contribution of Val-5 to the binding affinity, several control peptides were produced. The in vitro evolved Val-5 was replaced with a glycine (Gly-5) to assess side chain function. In a further truncated variant the entire amino acid residue was replaced with an acetate group (Ac-5) to assess the function of the amide group at position −5. The same variations of Val-5, Gly-5 or Ac-5 were also introduced in the framework of the naturally evolved consensus peptide. DYNNL1 binding of all six variants was analyzed by ITC. In all measurements the stoichiometry of binding was 1∶1 (2 peptides binding to one homodimer DYNNL1). […]
All peptides and DYNLL1 were dialyzed overnight in PBS buffer supplemented with 3 mM 2-mercaptoethanol (pH 7.4). […] For each experiment the thermodynamic parameters were determined at 299 K. We used a VP-ITC instrument from Microcal and the data were fitted by the software package Origin 5.0 (OriginLab) using the simple A + B to AB binding model. […]

T1 sequence (P63167 whole entry): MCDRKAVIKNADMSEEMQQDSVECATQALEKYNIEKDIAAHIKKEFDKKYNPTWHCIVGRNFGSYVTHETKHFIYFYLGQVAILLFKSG

ΔH: -7.74 kcal/mol
B1: EML3 (8-94): recombinant fragment of EML3 (residues 8–94) containing a coiled coil domain and the in vitro evolved consensus motif (protein, UniProt Q32P44 8-94, looked up, fragment)
chain: GDGPAREALQSLSQRLRVQEQEMELVKAALAEALRLLRLQVPPSSLQGSGTPAPPGDSLAAPPGLPPTCTPSLVSRGTQTETEVELK
